Assay results: the supplement of paper PMC9233669
Variants at the floor of the assay were thinned out.

Assays:
biotinyl-Phe-oxazolone = assay: self-aminoacylation, catalytic enhancement (BFO) (fold over background); higher = more active; k-Seq, kA / k0A0; sequences stand for … in GGGAAUGGAUCCACAUCUACGAAUUC…UUCACUGCAGACUUGACGAAGCUG
Summary of the method: (§1)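 Mutagenized RNA pools with a 21-nt variable region (0.43 μM) were reacted with each biotinyl-aminoacyl-oxazolone at 2–1250 μM for 90 minutes at room temperature, in 50 μL HEPES/NaCl/KCl/MgCl2/CaCl2 buffer containing 5% acetonitrile at pH 6.9–7.0. RNA captured on streptavidin was quantified by triplicate qPCR and by Illumina sequencing. The fraction reacted for each sequence was fit to a pseudo-first-order model with bootstrapping, and catalytic enhancement is the median kA divided by the uncatalyzed rate, taken as the low-activity peak of a bimodal Gaussian fit.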

biotinyl-Ile-oxazolone = assay: self-aminoacylation, catalytic enhancement (BIO) (fold over background); higher = more active; k-Seq, kA / k0A0; sequences stand for … in GGGAAUGGAUCCACAUCUACGAAUUC…UUCACUGCAGACUUGACGAAGCUG
Summary of the method: as §1

biotinyl-Met-oxazolone = assay: self-aminoacylation, catalytic enhancement (BMO) (fold over background); higher = more active; k-Seq, kA / k0A0; sequences stand for … in GGGAAUGGAUCCACAUCUACGAAUUC…UUCACUGCAGACUUGACGAAGCUG
Summary of the method: as §1

biotinyl-Val-oxazolone = assay: self-aminoacylation, catalytic enhancement (BVO) (fold over background); higher = more active; k-Seq, kA / k0A0; sequences stand for … in GGGAAUGGAUCCACAUCUACGAAUUC…UUCACUGCAGACUUGACGAAGCUG
Summary of the method: as §1

biotinyl-Leu-oxazolone = assay: self-aminoacylation, catalytic enhancement (BLO) (fold over background); higher = more active; k-Seq, kA / k0A0; sequences stand for … in GGGAAUGGAUCCACAUCUACGAAUUC…UUCACUGCAGACUUGACGAAGCUG
Summary of the method: as §1

biotinyl-Trp-oxazolone = assay: self-aminoacylation, catalytic enhancement (BWO) (fold over background); higher = more active; k-Seq, kA / k0A0; sequences stand for … in GGGAAUGGAUCCACAUCUACGAAUUC…UUCACUGCAGACUUGACGAAGCUG
Summary of the method: as §1

Sequence | self-aminoacylation (biotinyl-Phe-oxazolone) | self-aminoacylation (biotinyl-Ile-oxazolone) | self-aminoacylation (biotinyl-Met-oxazolone) | self-aminoacylation (biotinyl-Val-oxazolone) | self-aminoacylation (biotinyl-Leu-oxazolone) | self-aminoacylation (biotinyl-Trp-oxazolone)
CCACAGUUCAAGCAAUCCGUC [Fam1B.1 aminoacylation ribozyme variant] | 1.11 | 1.19 | 1.13 | 1.2 | 1.16 | 1.04
CCACAGUUCAAGCAAUCGGGC [Fam1B.1 aminoacylation ribozyme variant] | 10 | 2.04 | 2.81 | 2.42 | 2.18 | 3.13
CCACAGUUCAAGCAAUCGUUC [Fam1B.1 aminoacylation ribozyme variant] | 0.594 | 0.771 | 0.742 | 0.845 | 0.743 | 0.472
CCACAGUUCAAGCUAUCGGUC [Fam1B.1 aminoacylation ribozyme variant] | 0.851 | 1.21 | 1.25 | 1.27 | 1.1 | 0.749
CCACAGUUCAAGGAAUCGGUC [Fam1B.1 aminoacylation ribozyme variant] | 1.09 | 1.23 | 1.12 | 1.19 | 1.33 | 1.18
CCACAGUUCAGGCAAUCGGUC [Fam1B.1 aminoacylation ribozyme variant] | 8.63 | 2.02 | 1.65 | 2.27 | 2.28 | 2.25
CCACAUCUCAAGCAAUCGGUC [Fam1B.1 aminoacylation ribozyme variant] | 1.41 | 1.3 | 0.985 | 1.33 | 1.19 | 1.08
CCACAUUGCAAGCAAUCGGUC [Fam1B.1 aminoacylation ribozyme variant] | 1.99 | 1.75 | 1.67 | 1.68 | 1.87 | 1.58
CCACAUUUCAAGCAAUCGGUG [Fam1B.1 aminoacylation ribozyme variant] | 59.1 | 6.23 | 8.9 | 5.89 | 12.9 | 9.35
CCACAUUUCAAGCAAUCGUUC [Fam1B.1 aminoacylation ribozyme variant] | 1.13 | 0.94 | 0.83 | 1.16 | 0.798 | 0.727
CCACAUUUCAAGCAAUUGGUC [Fam1B.1 aminoacylation ribozyme variant] | 0.932 | 1.22 | 1.17 | 0.994 | 0.857 | 0.656
CCACCCUUAAAGCAAUCGGUC [Fam1B.1 aminoacylation ribozyme variant] | 1.59 | 1.23 | 0.96 | 1.18 | 1.05 | 1.4
CCACCCUUCAAGCAAUCGCUC [Fam1B.1 aminoacylation ribozyme variant] | 0.977 | 1.65 | 1.87 | 2.28 | 2.55 | 2.73
CCACCCUUCAAGCAAUCGGUC [Fam1B.1 aminoacylation ribozyme variant] | 19.9 | 1.05 | 0.936 | 1.32 | 1.16 | 11.3
CCACCCUUCAAGCUAUCGGUC [Fam1B.1 aminoacylation ribozyme variant] | 0.937 | 1.08 | 0.845 | 1.43 | 1.11 | 1.09
CCACCCUUCAAGUAAUCGGUC [Fam1B.1 aminoacylation ribozyme variant] | 7.55 | 1.15 | 1.18 | 1.25 | 1.13 | 7.3
CCACCUUUCAAGCAAUCGGUC [Fam1B.1 aminoacylation ribozyme variant] | 2.62 | 1.44 | 1.4 | 1.72 | 1.35 | 1.97
CCACGAUUCAAGCAAUCGGUC [Fam1B.1 aminoacylation ribozyme variant] | 1.89 | 1.51 | 1.78 | 1.47 | 1.17 | 1.95
CCACGCUUCAACCAAUCGGUC [Fam1B.1 aminoacylation ribozyme variant] | 65.2 | 1.16 | 1.37 | 1.55 | 1.99 | 40.4
CCACGCUUCAAGCAAUCAGUC [Fam1B.1 aminoacylation ribozyme variant] | 27.4 | 0.745 | 0.811 | 0.83 | 0.886 | 9.22
CCACGCUUCAAGCAAUCGGAC [Fam1B.1 aminoacylation ribozyme variant] | 1.87 | 0.794 | 0.64 | 0.666 | 0.696 | 1.24
CCACUAUUCAAGCAAUCGGUC [Fam1B.1 aminoacylation ribozyme variant] | 1.75 | 1.04 | 0.916 | 1.09 | 0.944 | 1.23
CCACUCUUCAAGCAGUCGGUC [Fam1B.1 aminoacylation ribozyme variant] | 1.07 | 1.04 | 1.03 | 1.1 | 1.24 | 1.28
CCACUCUUCAGGCAAUCGGUC [Fam1B.1 aminoacylation ribozyme variant] | 0.929 | 1.31 | 1.34 | 1.49 | 1.33 | 1.23
CCACUCUUCGAGCAAUCGGUC [Fam1B.1 aminoacylation ribozyme variant] | 0.996 | 1.19 | 1.03 | 1.24 | 0.964 | 1.32
CCACUUCAAACAAUCCGUCUG [Fam1A.1 aminoacylation ribozyme variant] | 2.13 | 1.08 | 0.967 | 1.01 | 0.795 | 1.85

Sequence | self-aminoacylation (biotinyl-Phe-oxazolone) | self-aminoacylation (biotinyl-Ile-oxazolone) | self-aminoacylation (biotinyl-Met-oxazolone) | self-aminoacylation (biotinyl-Val-oxazolone) | self-aminoacylation (biotinyl-Leu-oxazolone) | self-aminoacylation (biotinyl-Trp-oxazolone)
CCACUUCAAACAAUCGGCCUG [Fam1A.1 aminoacylation ribozyme variant] | 425 | 4.3 | 4.68 | 4.05 | 7.46 | 145
CCACUUCAAACAAUCGGUGUG [Fam1A.1 aminoacylation ribozyme variant] | 12.5 | 1.13 | 1.79 | 1.33 | 2.34 | 9.94
CCACUUCAAACACUCGGUCUG [Fam1A.1 aminoacylation ribozyme variant] | 4.37 | 1.45 | 1.75 | 2.14 | 1.73 | 1.5
CCACUUCAAACCAUCGGUCUG [Fam1A.1 aminoacylation ribozyme variant] | 1.49 | 1.31 | 0.947 | 1.29 | 1.24 | 1.16
CCAGAAUUCAAGCAAUCGGUC [Fam1B.1 aminoacylation ribozyme variant] | 2.26 | 1.91 | 1.65 | 1.6 | 2.3 | 1.81
CCAGACAUCAAGCAAUCGGUC [Fam1B.1 aminoacylation ribozyme variant] | 1.06 | 0.911 | 0.825 | 0.993 | 0.896 | 0.802
CCAGACUUCAAGCAACCGGUC [Fam1B.1 aminoacylation ribozyme variant] | 1.53 | 1.47 | 0.698 | 1.36 | 1.02 | 2
CCAGACUUCAAGCAAUCGGCC [Fam1B.1 aminoacylation ribozyme variant] | 17 | 3.33 | 4.19 | 3.43 | 4.53 | 6.87
CCAGACUUCAAGCAAUCGGUA [Fam1B.1 aminoacylation ribozyme variant] | 1.22 | 1.41 | 1.66 | 1.4 | 1.16 | 1.75
CCAGACUUCAAGCAAUCGGUG [Fam1B.1 aminoacylation ribozyme variant] | 29.2 | 4.56 | 6.21 | 4.1 | 8.51 | 7.25
CCAGACUUCAAGCCAUCGGUC [Fam1B.1 aminoacylation ribozyme variant] | 0.714 | 1.34 | 1.17 | 1.46 | 1.24 | 1.33
CCAUACUACAAGCAAUCGGUC [Fam1B.1 aminoacylation ribozyme variant] | 0.942 | 0.884 | 0.696 | 0.779 | 0.772 | 0.655
CCAUACUUAAAGCAAUCGGUC [Fam1B.1 aminoacylation ribozyme variant] | 0.813 | 0.92 | 0.804 | 0.904 | 0.802 | 0.674
CCAUACUUCAAGAAAUCGGUC [Fam1B.1 aminoacylation ribozyme variant] | 5.18 | 0.907 | 0.777 | 0.787 | 0.87 | 4.39
CCAUACUUCAAGCAAGCGGUC [Fam1B.1 aminoacylation ribozyme variant] | 0.737 | 1.09 | 0.775 | 1.03 | 0.875 | 0.726
CCAUACUUCAAGCAAUCGGAC [Fam1B.1 aminoacylation ribozyme variant] | 1.21 | 1.01 | 1.17 | 1.06 | 0.856 | 0.768
CCAUACUUCAAGCAAUCGGUU [Fam1B.1 aminoacylation ribozyme variant] | 3.48 | 1.61 | 1.17 | 1.71 | 1.61 | 2.98
CCAUACUUCAAGCAAUGGGUC [Fam1B.1 aminoacylation ribozyme variant] | 0.918 | 1.04 | 0.972 | 1 | 0.926 | 0.627
CCAUACUUCAAGCACUCGGUC [Fam1B.1 aminoacylation ribozyme variant] | 1.11 | 1.01 | 0.904 | 1.07 | 0.962 | 0.69
CCAUACUUCAAGCUAUCGGUC [Fam1B.1 aminoacylation ribozyme variant] | 0.984 | 1.05 | 0.801 | 1.09 | 0.952 | 0.697
CCAUACUUCAAGGAAUCGGUC [Fam1B.1 aminoacylation ribozyme variant] | 3.91 | 0.976 | 1.06 | 0.934 | 1.07 | 3.57
CCCAACUUCAAGCAAUCGGUC [Fam1B.1 aminoacylation ribozyme variant] | 78.4 | 1.56 | 1.49 | 1.74 | 2.34 | 40.9
CCCCACCUCAAGCAAUCGGUC [Fam1B.1 aminoacylation ribozyme variant] | 5.97 | 1.73 | 1.48 | 2.2 | 1.48 | 4.87
CCCCACUUCAAGCAAUCGGAC [Fam1B.1 aminoacylation ribozyme variant] | 2.8 | 1.45 | 1.44 | 1.52 | 1.19 | 2.45
CCCCACUUCAAGCAAUCGGCC [Fam1B.1 aminoacylation ribozyme variant] | 20.8 | 2.74 | 3.04 | 3.8 | 2.75 | 11.3
